Patent publication US20140322218A1 (Amgen, published 2014)

Experiments:
Human Cadherin-19 = molecular target: T1, Human Cadherin-19 (human, UniProt Q9H159 44-772); assay: FACS, endogenous CDH19 on CHL-1/Colo699
T1 construct: Residues 1-43 are named as the native leader in the construct designations and are left out; also called human CDH19; huCDH19
Method: FACS binding assays were performed to evaluate the binding of the anti-Cadherin-19 receptor specific antibodies to endogenous Cadherin-19 receptor expressed on the CHL-1 tumor cell lines.
FACs assays were performed by incubating hybridoma supernatants with 10,000 to 25,000 cells in PBS/2% Fetal bovine serum/2 mM Calcium Chloride at 4° C. for one hour followed by two washes with PBS/2% Fetal bovine serum/2 mM Calcium Chloride. Cells were then treated with florochrome-labeled secondary antibodies at 4° C. followed by one wash. The cells were resuspended in 50 μl of PBS/2% FBS and antibody binding was analyzed using a FACSCalibur™ instrument.

[1] = molecular target: T2, huCDH19(44-249)::muCDH19(248-770), Flag-tagged, on 293T cells (human/mouse chimera); assay: FACS, transfected 293T
T2 construct: also called Hu EC1-2; C137896
From the text: (§1) The experiment included assaying the anti-CDH19 antibodies against mouse Cadherin19 to determine suitability for binning on these human/mouse chimeras.

[2] = molecular target: T3, huCDH19(44-772), Flag-tagged, on 293T cells (human, UniProt Q9H159 44-772); assay: FACS, transfected 293T
T3 construct: Expressed with native leader (1-43) followed by a Flag tag; leader left out; also called Hu EC1-5
From the text: as §1

[3] = molecular target: T4, huCDH19(44-141)::muCDH19(140-770), Flag-tagged, on 293T cells (human/mouse chimera); assay: FACS, transfected 293T
T4 construct: also called Hu EC1
From the text: as §1

Cyno Cadherin-19 = molecular target: T5, Cyno Cadherin-19 (cynomolgus monkey (Macaca fascicularis), UniProt Q9H159 44-772 (human entry)); assay: FACS, recombinant cyno CDH19
T5 construct: also called cyno CDH19; cynomologous CDH-19
T5 chain: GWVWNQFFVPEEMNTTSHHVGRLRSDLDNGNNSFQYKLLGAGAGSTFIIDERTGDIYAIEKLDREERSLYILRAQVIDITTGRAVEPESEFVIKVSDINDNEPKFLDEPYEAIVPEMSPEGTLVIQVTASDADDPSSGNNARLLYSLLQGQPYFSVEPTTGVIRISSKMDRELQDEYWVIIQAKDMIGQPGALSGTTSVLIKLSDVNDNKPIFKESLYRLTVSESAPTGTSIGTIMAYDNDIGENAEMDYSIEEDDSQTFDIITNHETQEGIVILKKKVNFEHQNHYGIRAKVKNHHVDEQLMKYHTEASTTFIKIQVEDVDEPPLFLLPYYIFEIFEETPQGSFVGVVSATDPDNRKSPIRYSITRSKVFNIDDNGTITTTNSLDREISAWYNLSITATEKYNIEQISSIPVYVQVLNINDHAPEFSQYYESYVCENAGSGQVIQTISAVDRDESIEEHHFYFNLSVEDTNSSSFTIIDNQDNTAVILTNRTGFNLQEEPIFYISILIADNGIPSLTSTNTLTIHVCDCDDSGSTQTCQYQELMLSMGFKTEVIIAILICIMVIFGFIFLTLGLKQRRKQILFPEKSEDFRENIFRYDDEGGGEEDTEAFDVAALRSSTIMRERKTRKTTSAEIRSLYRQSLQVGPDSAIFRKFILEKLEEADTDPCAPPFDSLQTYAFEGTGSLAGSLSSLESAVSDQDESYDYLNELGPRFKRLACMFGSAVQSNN

binding result (Human Cadherin-19): binds
binding result [1]: binds
binding result [2]: binds
binding result [3]: binds
binding result (Cyno Cadherin-19): binds
B1: hu anti-<huCDH19> 25F8.1 VH::huIgG1z / 25F8.1 VL::huLLC-C2 (Ab ID 13880) (antibody, V domains shown)
VH: QVQLVQSGAEVKKPGASVKVSCKASGYTFTSYYIHWVRQAPGQGLEWMGIINPSGGSTRYAQKFQGRVTMTRDTSTSTVFMELSSLRSEDTAVYYCARGGIQLWLHFDYWGQGTLVTVSS
VL: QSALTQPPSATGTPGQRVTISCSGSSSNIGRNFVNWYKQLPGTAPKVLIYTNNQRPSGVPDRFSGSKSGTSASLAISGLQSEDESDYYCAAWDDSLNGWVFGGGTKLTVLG
